The values that follow come from PMC3694306.

In test [1] the target is EssB (full-length, membrane-bound, Geobacillus thermodenitrificans NG80-2) (Geobacillus thermodenitrificans NG80-2). The test is described as follows: SEC; detergent-solubilised membrane-bound protein; Superdex200 HR 30/100 GL, buffers with 0.02% DDM and 1 ug/ml DOPC. A general note: In gel filtration, larger molecules generally elute earlier.
For test [2], the target named is EssB-C (C-terminal extracytosolic fragment of EssB, Ala241 to Lys428) (Geobacillus thermodenitrificans NG80-2). The test is described as follows: crystal structure; EssB-C, tetragonal P4(3)2(1)2, two molecules in the asymmetric unit, 2.1 M malate pH 7.0, 3.2 Å; dimer made by crystallographic symmetry.
Test [3] shares this target. As to the kind of experiment: SEC; soluble fragments; Superdex75 prep grade HR 16/60, buffer C (10 mM sodium phosphate pH 7.8, 20 mM NaCl, 0.5 mM TCEP), column calibrated with molecular mass standards.
Test [4] concerns the target EssB-C^Δ (C-terminally truncated extracytosolic fragment of EssB, Ala241 to Gln397) (Geobacillus thermodenitrificans NG80-2). The test is described as above.
For test [5] the target is unchanged. The test is described as follows: crystal structure; EssB-C^Δ, monoclinic C2, four molecules in the asymmetric unit, 3.0 M malonate pH 7.0, 10 mM ZnCl2, 2.4 Å; dimer made by crystallographic symmetry.
Test [6] deals with EssB-N (N-terminal, predicted cytoplasmic fragment of EssB, Ser2 to Asp214) (Geobacillus thermodenitrificans NG80-2). The test is described as follows: SEC; EssB-N (2 mg) in various test buffers with 0.5% TCEP and 10% glycerol (Tris-HCl pH 7.8 with 20 mM NaCl, with or without 5 mM EDTA; phosphate pH 7.8 or Bis-Tris pH 5.5 with 300 mM NaCl), 30 min at room temperature, Superdex75 HR 30/100 GL.

For test [7] the target is unchanged. The test is described as follows: SEC; EssB-N (2 mg) in 100 mM citrate pH 5.5, 300 mM NaCl, 0.5% TCEP, 10% glycerol, 30 min at room temperature, Superdex75 HR 30/100 GL.
For test [8] the target is unchanged. The test is described as follows: native gel or EMSA; blue native PAGE, linear 4-16% gradient Native Bis-Tris gel, 3 ug purified EssB-N. A general note: Mobility shift assays separate free from complexed probe on a gel.
Test [9] concerns the target EssB-N D54C (cysteine-free template C48S, C108S, C171S), MTSSL spin-labelled (Geobacillus thermodenitrificans NG80-2). As to the kind of experiment: SEC; EssB-N cysteine mutants before and after MTSSL labelling (data not shown).
For test [10], the target named is EssB-N D54C (cysteine-free template C48S, C108S, C171S), before MTSSL labelling (Geobacillus thermodenitrificans NG80-2). Described as above.
The target of test [11] is EssB^Δ (membrane-bound EssB truncated by 31 C-terminal residues) (Geobacillus thermodenitrificans NG80-2). As to the kind of experiment: SEC; detergent-solubilised membrane-bound protein; Superdex200 HR 30/100 GL, buffers with 0.02% DDM and 1 ug/ml DOPC.
The target in test [12] is EssB^Δ D54C (cysteine-free template C48S, C108S, C171S), MTSSL spin-labelled (Geobacillus thermodenitrificans NG80-2). The description is as above.
Test [13] concerns the target EssB^Δ E59C (cysteine-free template C48S, C108S, C171S), MTSSL spin-labelled (Geobacillus thermodenitrificans NG80-2). The test is described as above.
The target of test [14] is EssB^Δ E139C (cysteine-free template C48S, C108S, C171S), MTSSL spin-labelled (Geobacillus thermodenitrificans NG80-2). Described as above.
Test [15] concerns the target EssB^Δ E197C (cysteine-free template C48S, C108S, C171S), MTSSL spin-labelled (Geobacillus thermodenitrificans NG80-2). The test is described as above.
Test [16] deals with EssB^Δ E273C (cysteine-free template C48S, C108S, C171S), MTSSL spin-labelled (Geobacillus thermodenitrificans NG80-2). Described as above.
Test [17] concerns the target EssB^Δ N115C (cysteine-free template C48S, C108S, C171S), MTSSL spin-labelled (Geobacillus thermodenitrificans NG80-2). Described as above.
The target of test [18] is EssB^Δ R86C (cysteine-free template C48S, C108S, C171S), MTSSL spin-labelled (Geobacillus thermodenitrificans NG80-2). Described as above.
In test [19] the target is EssB^Δ S93C (cysteine-free template C48S, C108S, C171S), MTSSL spin-labelled (Geobacillus thermodenitrificans NG80-2). Described as above.

In general, stoichiometry N refers to a count of units in the complex or per binding partner. The substance “EssB (full-length, membrane-bound, Geobacillus thermodenitrificans NG80-2) (natural protein)” showed a stoichiometry N in test [1] of 2. With “EssB-C (C-terminal extracytosolic fragment of EssB, Ala241 to Lys428) (domain or fragment)”, the stoichiometry N in [2] and in test [3] was 2 each time. On to “EssB-C^Δ (C-terminally truncated extracytosolic fragment of EssB, Ala241 to Gln397) (domain or fragment)”, for which the stoichiometry N in test [4] and in test [5] was 2 each time. Turning to “EssB-N (N-terminal, predicted cytoplasmic fragment of EssB, Ser2 to Asp214) (domain or fragment)”, the stoichiometry N in test [6] and in test [8] was 2 throughout. Moreover, the percent monomeric in test [7] is above 10%. In turn, “EssB-N D54C (cysteine-free template C48S, C108S, C171S), MTSSL spin-labelled (domain or fragment)” displayed a stoichiometry N in [9] of 2. Turning to “EssB-N D54C (cysteine-free template C48S, C108S, C171S), before MTSSL labelling (domain or fragment)”, the stoichiometry N in test [10] amounted to 2. As for “EssB^Δ (membrane-bound EssB truncated by 31 C-terminal residues) (domain or fragment)”, in test [11], the stoichiometry N was found to be 2. In test [12], “EssB^Δ D54C (cysteine-free template C48S, C108S, C171S), MTSSL spin-labelled (domain or fragment)” returned a stoichiometry N of 2. For the substance “EssB^Δ E59C (cysteine-free template C48S, C108S, C171S), MTSSL spin-labelled (domain or fragment)”, the stoichiometry N in test [13] amounted to 2. The substance “EssB^Δ E139C (cysteine-free template C48S, C108S, C171S), MTSSL spin-labelled (domain or fragment)” yielded a stoichiometry N in test [14] of 2. As for “EssB^Δ E197C (cysteine-free template C48S, C108S, C171S), MTSSL spin-labelled (domain or fragment)”, the stoichiometry N in test [15] was 2. For “EssB^Δ E273C (cysteine-free template C48S, C108S, C171S), MTSSL spin-labelled (domain or fragment)”, in test [16], the stoichiometry N was 2. As for “EssB^Δ N115C (cysteine-free template C48S, C108S, C171S), MTSSL spin-labelled (domain or fragment)”, in test [17], the stoichiometry N was 2.

In turn, “EssB^Δ R86C (cysteine-free template C48S, C108S, C171S), MTSSL spin-labelled (domain or fragment)” gave a stoichiometry N in test [18] of 2. In turn, “EssB^Δ S93C (cysteine-free template C48S, C108S, C171S), MTSSL spin-labelled (domain or fragment)” showed a stoichiometry N in [19] of 2.
